Laboratory results taken from the supplement of paper PMC10724198.
± gives the standard deviation of the averaged measurements.

Tests used:
Saccharomyces cerevisiae [1] = assay: protein stability index of tFT-peptide fusion (C-terminal peptide) (PSI (0-1 scale)); higher = more stable (slower turnover)
Procedure: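 MPS profiling in S. cerevisiae of the tFT-X12 degron library: putative degron peptides plus stable controls, 12 aa, fused to the C-terminus of a sfGFP-mCherry timer. Cells are FACS-sorted into 8 mCherry/sfGFP bins and deep-sequenced. PSI runs from 0 (unstable) to 1 (stable). Backgrounds are wild type, das1Δ and doa10Δ at 30 °C, and wild type, das1Δ, cdc34-1 and cdc53-1 at 37 °C; 2-3 technical replicates each.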

Saccharomyces cerevisiae [2] = assay: as above; conditions: genetic background: wild type; temperature: 30 C
[3] = genetic background: cdc34-1, temperature: 37 C
[4] = genetic background: cdc53-1, temperature: 37 C
[5] = genetic background: das1 deletion, temperature: 30 C
[6] = genetic background: das1 deletion, temperature: 37 C
[7] = genetic background: doa10 deletion, temperature: 30 C
[8] = genetic background: wild type, temperature: 30 C
[9] = genetic background: wild type, temperature: 37 C
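Also: PSI is a weighted mean of sequencing reads over stability bins, variants kept only with over 10 reads, mCherry proximal and sfGFP distal, peptide attached via GGGS linker.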

Sequence	protein stability index (Saccharomyces cerevisiae [1]; [3])	protein stability index (Saccharomyces cerevisiae [1]; [4])	protein stability index (Saccharomyces cerevisiae [1]; [5])	protein stability index (Saccharomyces cerevisiae [1]; [6])	protein stability index (Saccharomyces cerevisiae [1]; [7])	protein stability index (Saccharomyces cerevisiae [1]; [8])	protein stability index (Saccharomyces cerevisiae [1]; [9])	protein stability index (Saccharomyces cerevisiae [2])
ATLWVWCFSSHV	0.601 ± 0.047	0.6418 ± 0.003	0.469 ± 0.019	0.62 ± 0.013	0.438 ± 0.023	0.447 ± 0.021	0.5991 ± 0.0014	0.497 ± 0.078
FGFSFLHLFIFF	0.429 ± 0.051	0.395 ± 0.028	0.375 ± 0.033	0.519 ± 0.03	0.443 ± 0.011	0.313 ± 0.038	0.457 ± 0.013	0.399 ± 0.035
RVRNSQVVAVVG	0.491 ± 0.014	0.576 ± 0.014	0.354 ± 0.038	0.586 ± 0.0092	0.3291 ± 0.0023	0.382 ± 0.018	0.548 ± 0.022	0.477 ± 0.011
MALAVRVVICGA	0.0365 ± 0.01	0.11 ± 0.097	0.134 ± 0.015	0.172 ± 0.011	0.103 ± 0.012	0.107 ± 0.019	0.134 ± 0.026	0.169 ± 0.0098
CFFPFLCFVVGA	0.482 ± 0.021	0.492 ± 0.023	0.358 ± 0.025	0.514 ± 0.0085	0.3205 ± 0.0017	0.346 ± 0.013	0.49 ± 0.0059	0.445 ± 0.017
SVAGFFLLLLLS	0.3561 ± 0.0034	0.397 ± 0.0096	0.305 ± 0.036	0.487 ± 0.02	0.191 ± 0.0079	0.193 ± 0.029	0.338 ± 0.0072	0.285 ± 0.012
PSPYSLSPYFLV	0.678 ± 0.032	0.74 ± 0.011	0.646 ± 0.013	0.7674 ± 0.0074	0.255 ± 0.013	0.302 ± 0.043	0.4902 ± 0.0013	0.425 ± 0.044
PLRRPSWVVLSS	0.671 ± 0.024	0.7218 ± 0.0037	0.638 ± 0.014	0.727 ± 0.0099	0.357 ± 0.024	0.38 ± 0.029	0.5802 ± 0.0041	0.493 ± 0.0029
RLICFFSMYLRF	0.239 ± 0.024	0.17 ± 0.064	0.367 ± 0.058	0.395 ± 0.006	0.614 ± 0.029	0.355 ± 0.026	0.369 ± 0.022	0.334 ± 0.14
ALHGTVRNWQRQ	0.673 ± 0.066	0.701 ± 0.059	0.63 ± 0.035	0.696 ± 0.011	0.191 ± 0.016	0.245 ± 0.0071	0.535 ± 0.04	0.39 ± 0.015
LPWLLLISFSYR	0.149 ± 0.017	0.25 ± 0.037	0.202 ± 0.029	0.38 ± 0.0051	0.171 ± 0.0091	0.188 ± 0.029	0.378 ± 0.061	0.286
GCVGLSFCVWVG	0.382 ± 0.011	0.502 ± 0.02	0.323 ± 0.031	0.523 ± 0.026	0.175 ± 0.015	0.211 ± 0.018	0.3965 ± 0.0014	0.314 ± 0.023
GGFHWCPSASRG	0.712 ± 0.01	0.755 ± 0.016	0.647 ± 0.031	0.7536 ± 0.0026	0.678 ± 0.02	0.6726 ± 0.0059	0.749 ± 0.014	0.711 ± 0.017
YLYSSSPWILHG	0.673 ± 0.011	0.748 ± 0.035	0.664 ± 0.015	0.748 ± 0.033	0.274 ± 0.027	0.287 ± 0.044	0.52 ± 0.023	0.383 ± 0.045
QIGSMLGVQGVG	0.454 ± 0.017	0.526 ± 0.013	0.461 ± 0.013	0.516 ± 0.0073	0.495 ± 0.014	0.4672 ± 0.0041	0.545 ± 0.027	0.498 ± 0.031
GPVRSPPSPTPR	0.674 ± 0.03	0.737 ± 0.0096	0.682 ± 0.015	0.73559 ± 0.00023	0.674 ± 0.024	0.66 ± 0.027	0.698 ± 0.014	0.727 ± 0.05

Sequence	protein stability index (Saccharomyces cerevisiae [1]; [3])	protein stability index (Saccharomyces cerevisiae [1]; [4])	protein stability index (Saccharomyces cerevisiae [1]; [5])	protein stability index (Saccharomyces cerevisiae [1]; [6])	protein stability index (Saccharomyces cerevisiae [1]; [7])	protein stability index (Saccharomyces cerevisiae [1]; [8])	protein stability index (Saccharomyces cerevisiae [1]; [9])	protein stability index (Saccharomyces cerevisiae [2])
LPPFRFSLPFRR	0.692 ± 0.044	0.7531 ± 0.0018	0.671 ± 0.013	0.705 ± 0.023	0.64 ± 0.024	0.658 ± 0.019	0.71 ± 0.036	0.712 ± 0.019
VWFCCLFFCFFV	0.432 ± 0.021	0.448 ± 0.0086	0.378 ± 0.028	0.47 ± 0.011	0.4276 ± 0.0036	0.367 ± 0.012	0.41 ± 0.012	0.404 ± 0.028
FCSVFAHFLLCH	0.382 ± 0.011	0.443 ± 0.0052	0.4 ± 0.013	0.49 ± 0.0094	0.193 ± 0.005	0.207 ± 0.013	0.271 ± 0.0043	0.264 ± 0.0032
LLSILSSLPLSR	0.579 ± 0.04	0.6106 ± 0.0022	0.585 ± 0.043	0.7073 ± 0.0042	0.654 ± 0.033	0.589 ± 0.024	0.656 ± 0.029	0.576 ± 0.12
SRRRRLVSKFLA	0.63 ± 0.043	0.7 ± 0.042	0.653 ± 0.027	0.729 ± 0.03	0.141 ± 0.019	0.161 ± 0.0082	0.3 ± 0.0063	0.223 ± 0.017
FAIRMHCLIFRC	0.123 ± 0.05	0.15 ± 0.024	0.26 ± 0.048	0.343 ± 0.036	0.2 ± 0.0056	0.124 ± 0.02	0.185 ± 0.0043	0.19 ± 0.0057
SFSFCCLLASFV	0.605 ± 0.015	0.6186 ± 0.006	0.484 ± 0.028	0.617 ± 0.014	0.444 ± 0.025	0.461 ± 0.015	0.603 ± 0.013	0.44 ± 0.044
LLVFSLLRPFLF	0.615 ± 0.072	0.643 ± 0.018	0.567 ± 0.039	0.6602 ± 0.0048	0.414 ± 0.028	0.417 ± 0.023	0.5623 ± 0.003	0.501 ± 0.016
LLCGVLFFFWVV	0.38 ± 0.018	0.496 ± 0.011	0.383 ± 0.03	0.525 ± 0.017	0.311 ± 0.0096	0.32 ± 0.021	0.451 ± 0.0076	0.42 ± 0.068
INHVIHAKLRFS	0.629 ± 0.015	0.675 ± 0.082	0.643 ± 0.011	0.72 ± 0.03	0.11 ± 0.026	0.13 ± 0.03	0.249 ± 0.075	0.237 ± 0.066
SLSFLRPLLLIF	0.0444 ± 0.014	0.0385 ± 0.012	0.12 ± 0.028	0.118 ± 0.0077	0.131 ± 0.0095	0.0702 ± 0.013	0.0953 ± 0.019	0.102 ± 0.012
WSVCLLLLGRFC	0.523 ± 0.013	0.604 ± 0.011	0.455 ± 0.026	0.617 ± 0.026	0.347 ± 0.0005	0.381 ± 0.024	0.554 ± 0.026	0.466 ± 0.018
RMTFFGFTVKML	0.641 ± 0.025	0.7448 ± 0.0058	0.619 ± 0.0095	0.75 ± 0.011	0.196 ± 0.036	0.264 ± 0.03	0.537 ± 0.01	0.407 ± 0.031
LIARYTFLFCLC	0.553 ± 0.042	0.611 ± 0.015	0.531 ± 0.015	0.628 ± 0.021	0.3501 ± 0.0008	0.354 ± 0.024	0.488 ± 0.025	0.444 ± 0.031
LVFLYFHFCCGF	0.4768 ± 0.0043	0.4909 ± 0.0032	0.394 ± 0.026	0.543 ± 0.024	0.399 ± 0.017	0.386 ± 0.013	0.5313 ± 0.0006	0.485 ± 0.017
